US20190309274, “IL-10 RECEPTOR ALPHA HOMING ENDONUCLEASE VARIANTS, COMPOSITIONS, AND METHODS OF USE” (bluebird bio, Inc., published 2019)
Numbering of substitutions follows the chain as printed.

What was measured:
[1] = target: T1, IL-10Rα.G7.A3.G7 I-OnuI homing endonuclease variant (Artificial (Ophiostoma novo-ulmi I-OnuI …)); assay: flow; yeast surface display substrate titration; stated as sub-nanomolar affinity, exact value only in figure; conditions: tags: yeast surface display
T1 chain: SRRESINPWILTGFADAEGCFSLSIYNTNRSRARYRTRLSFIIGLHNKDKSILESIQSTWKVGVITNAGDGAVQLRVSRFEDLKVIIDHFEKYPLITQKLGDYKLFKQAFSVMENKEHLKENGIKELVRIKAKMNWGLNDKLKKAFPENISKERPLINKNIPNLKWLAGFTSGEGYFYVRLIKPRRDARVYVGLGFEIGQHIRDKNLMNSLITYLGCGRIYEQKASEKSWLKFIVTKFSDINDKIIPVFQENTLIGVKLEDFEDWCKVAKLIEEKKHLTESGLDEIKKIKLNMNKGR

[2] = target: T2, IL-10Rα.G7.A3 I-OnuI homing endonuclease variant (Artificial (Ophiostoma novo-ulmi I-OnuI …)); assay: cell_activity; chromosomal mCherry reporter in HEK 293T; variant isolated by display sorting under 50 pM affinity conditions
T2 chain: T1 chain with S55N, Y176H
Description: The activity of reprogrammed I-OnuI HEs that target exon 2 of the IL-10Rα gene was measured using a chromosomally integrated fluorescent reporter system (Certo et. al., 2011). Fully reprogrammed I-OnuI HEs that bind and cleave the IL-10Rα target sequence were cloned into mammalian expression plasmids and then individually transfected into a HEK 293T […] cell line that was reprogrammed to contain the IL-10Rα target sequence upstream of an out-of-frame gene encoding the fluorescent mCherry protein. Cleavage of the embedded target site by the HE and the subsequent accumulation of small insertions or deletions, caused by DNA repair via the non-homologous end joining (NHEJ) pathway, results in approximately one out of three repaired loci placing the fluorescent reporter gene back “in-frame”. mCherry fluorescence is therefore a readout of endonuclease activity at the chromosomally embedded target sequence. […] FIG. 3.
A secondary I-OnuI variant library was generated by performing random mutagenesis on one of the reprogrammed I-OnuI HEs that targets the IL-10Rα target site, identified in the initial reporter screen (IL-10Rα.G7, SEQ ID NO: 6). In addition, display-based flow sorting was performed under more stringent affinity conditions (50 pM) to isolate variants with improved binding characteristics. FIG. 3. […]

B1: IL-10Rα exon 2 HE target site (dsDNA)
DNA 1: GGTGGAAAAATTCTGCTTCAAA
DNA 2: TTTGAAGCAGAATTTTTCCACC
Kd [1]: < 1 nM
activity [2]: ~2 fold vs IL-10Rα.G7
